According to the Immune Epitope Database (IEDB):
pIC50, pKd: −log10 of the molar value. Each block holds one sequence with its values, some of them ahead of it.

Assays:
[1] = molecular target: HLA-A*02:01; experiment: IEDB peptide-MHC binding, purified MHC/competitive/fluorescence; ≥ and ≤ were set here for values at or beyond the usual limits of such assays
[2] = molecular target: HLA-A*24:02; experiment: as above
[3] = molecular target: HLA-A*30:02; experiment: IEDB peptide-MHC binding, purified MHC/competitive/radioactivity; filed as Kd, often an IC50 or EC50 that approximates it; ≥ and ≤ were set here for values at or beyond the usual limits of such assays
[4] = molecular target: HLA-A*03:01; experiment: as above; settings: source organism: Vaccinia virus WR
[5] = molecular target: HLA-A*30:01; experiment: as above
[6] = molecular target: HLA-A*11:01; experiment: as above; settings: source organism: Vaccinia virus WR
[7] = molecular target: HLA-A*31:01; experiment: as above; settings: source organism: Vaccinia virus WR
[8] = molecular target: HLA-A*68:01; experiment: as above
[9] = molecular target: HLA-A*33:01; experiment: as above
[10] = molecular target: HLA-B*40:01; experiment: as above; settings: source organism: Dengue virus 1 Brazil/97-11/1997
[11] = molecular target: HLA-B*53:01; experiment: as above
[12] = molecular target: HLA-B*51:01; experiment: as above
[13] = molecular target: HLA-A*23:01; experiment: as above
[14] = molecular target: HLA-A*24:02; experiment: as above
[15] = molecular target: HLA-A*02:01; experiment: as above
[16] = molecular target: HLA-A*26:01; experiment: as above
[17] = molecular target: HLA-A*03:01; experiment: IEDB peptide-MHC binding, purified MHC/direct/fluorescence; filed as Kd, often an IC50 or EC50 that approximates it; ≥ and ≤ were set here for values at or beyond the usual limits of such assays
[18] = molecular target: HLA-B*15:01; experiment: as above
[19] = molecular target: HLA-A*31:01; experiment: as above
[20] = molecular target: HLA-B*27:05; experiment: as above; settings: source organism: SARS-CoV1
[21] = molecular target: HLA-A*02:01; experiment: as above; settings: source organism: SARS-CoV1
[22] = molecular target: HLA-A*69:01; experiment: as above; settings: source organism: SARS-CoV1
[23] = molecular target: HLA-A*26:01; experiment: as above
[24] = molecular target: HLA-A*02:06; experiment: IEDB peptide-MHC binding, purified MHC/competitive/radioactivity; filed as Kd, often an IC50 or EC50 that approximates it; ≥ and ≤ were set here for values at or beyond the usual limits of such assays; settings: source organism: Dengue virus 2 Jamaica/1409/1983
[25] = molecular target: HLA-B*44:02; experiment: as above
[26] = molecular target: HLA-A*02:01; experiment: IEDB peptide-MHC binding, purified MHC/competitive/fluorescence; filed as Kd, often an IC50 or EC50 that approximates it; ≥ and ≤ were set here for values at or beyond the usual limits of such assays
[27] = molecular target: HLA-A*11:01; experiment: IEDB peptide-MHC binding, purified MHC/direct/fluorescence; filed as Kd, often an IC50 or EC50 that approximates it; ≥ and ≤ were set here for values at or beyond the usual limits of such assays; settings: source organism: SARS-CoV1
[28] = molecular target: HLA-A*02:03; experiment: IEDB peptide-MHC binding, purified MHC/competitive/radioactivity; filed as Kd, often an IC50 or EC50 that approximates it; ≥ and ≤ were set here for values at or beyond the usual limits of such assays; settings: source organism: Homo sapiens
[29] = source organism: Vaccinia virus Copenhagen
[30] = source organism: Zaire ebolavirus
[31] = source organism: Dengue virus 4 Philippines/H241/1956
[32] = source organism: Vaccinia virus WR
[33] = source organism: Dengue virus 1 Brazil/97-11/1997
[34] = source organism: Dengue virus 3 Singapore/8120/1995
[35] = source organism: Dengue virus 2 Jamaica/1409/1983
[36] = source organism: Dengue virus 3 Martinique/1243/1999
[37] = source organism: Sudan ebolavirus
[38] = source organism: Human alphaherpesvirus 1 strain 17
[39] = source organism: Lassa virus Josiah
[40] = source organism: Haemophilus influenzae
[41] = source organism: SARS coronavirus Tor2
[42] = source organism: Dengue virus 4 Thailand/0348/1991
[43] = source organism: Dengue virus 1 Singapore/S275/1990

Sequence: SSQMTSTFI
pIC50 [1, 29]: ≤ 4.14 | pIC50 [2, 29]: ≤ 4.15

Sequence: YPNVCIFGN
pIC50 ([2]; source organism: Vaccinia virus): 4.45

Sequence: FQESADSFL
pIC50 [1, 30]: 4.85

Sequence: RFLGEDGCWY
pKd [3, 31]: 7.58

Sequence: KFRPGSLIY
pKd [4]: ≤ 4.67 | pKd [5, 32]: 9.52 | pKd [6]: ≤ 4.23 | pKd [7]: 4.95 | pKd [8, 32]: ≤ 4.11 | pKd [9, 32]: ≤ 4.11

Sequence: REIVVPCRNQ
pKd [10]: 6.64

Sequence: YLFNWAVRT
pIC50 ([1]; source organism: Hepatitis C virus genotype 1): 5.30

Sequence: VHQVFGTAY
pKd [3, 33]: 6.22

Sequence: MPGTRKVMEI
pKd [11, 34]: 7.12 | pKd [12, 34]: 5.96

Sequence: ISRSRRLFA
pKd [5, 32]: 8.65

Sequence: NWLNNNTQF
pKd [13, 35]: 6.15 | pKd [14, 35]: 7.06

Sequence: PTAWQSVGH
pIC50 [1, 30]: ≤ 3.58 | pIC50 [2, 30]: 4.54

Sequence: IVRDSMWYI
pKd [5, 29]: 7.71

Sequence: KRSLRPQPTE
pKd [5, 35]: 5.43

Sequence: QAFTFSPTYK
pKd ([15]; source organism: Hepatitis B virus subtype adw2): ≤ 4.46

Sequence: GCGRGGWSYY
pKd [3, 36]: 8.03

Sequence: YTTMFGGVSW
pKd [11, 31]: 6.92

Sequence: CTILAAVSVS
pKd [5, 35]: 5.55 | pKd [16, 35]: ≤ 4.25

Sequence: PVYQVNNLE
pIC50 [2, 30]: ≤ 4.00

Sequence: TVTGILGSL
pIC50 [1, 37]: 4.65 | pIC50 [2, 37]: ≤ 4.11

Sequence: NLLTTPKFT
pKd [15, 38]: 6.30

Sequence: GLNLEGSGV
pIC50 [1, 37]: 5.41

Sequence: KRDGVKRLE
pIC50 [2, 30]: ≤ 3.76

pIC50 ([1]; source organism: Homo sapiens): 8.00
Sequence: YIGEVLVSV

Sequence: AFKVRPTFA
pKd [5, 35]: 7.28

Sequence: WLVSNGSYL
pKd [15, 39]: 5.75

Sequence: TSFFLWVII
pIC50 [1, 30]: ≤ 3.30 | pIC50 [2, 30]: ≤ 3.88

Sequence: VYRIKQQGI
pKd [14, 36]: 6.33

Sequence: MDSRPQKIW
pIC50 [1, 30]: ≤ 3.72 | pIC50 [2, 30]: 4.17

Sequence: YWPVMNHKN
pIC50 [2, 30]: 5.15

Sequence: LNLSGVNNL
pIC50 [1, 30]: ≤ 4.11

pKd [17, 40]: 5.50 | pKd [18, 40]: 6.28 | pKd [19, 40]: 5.25
Sequence: ILKEHVSRY

Sequence: PPTAGILARW
pKd [11, 33]: 4.99

Sequence: SGVLWDTPSP
pKd [5, 33]: ≤ 4.15

Sequence: SYLAGAGLLF
pKd [13, 35]: 9.15 | pKd [14, 35]: 8.21

Sequence: LFQKAFSMP
pIC50 [2, 37]: 5.56

Sequence: LTKLFSYGT
pIC50 ([1]; source organism: Variola virus): 4.44

Sequence: AVPSHWVPTS
pKd [5, 35]: 4.82

Sequence: GMSGGNQGA
pKd [15, 39]: 4.90

Sequence: STSNGLITS
pIC50 [1, 37]: ≤ 3.75

Sequence: KIKSSNSSK
pKd [5, 32]: 7.84

Sequence: PLEEELPR
pKd ([15]; source organism: Hepatitis B virus): ≤ 4.60

Sequence: QNKEGDQYIY
pKd ([3]; source organism: Dengue virus 1 Nauru/West Pac/1974): 5.87

Sequence: SVGGVFTSV
pIC50 ([1]; source organism: West Nile virus NY-99): 6.61

Sequence: PPTAGILKRW
pKd [11, 35]: 5.49

Sequence: FVEGLSGATW
pKd [11, 33]: 7.84

Sequence: KLFAAETLK
pKd [8, 41]: 6.40 | pKd [9, 41]: 4.87 | pKd ([18]; source organism: SARS-CoV1): ≤ 4.67 | pKd [20]: 5.66 | pKd [21]: ≤ 4.53 | pKd ([19]; source organism: SARS-CoV1): 6.76 | pKd [22]: 4.80

Sequence: AFPQSNAVI
pKd [14, 33]: 5.54

Sequence: HTIENTSAN
pKd [16, 31]: 5.32

Sequence: LWVAEIQPQW
pKd [13, 31]: 5.86 | pKd [14, 31]: 6.51

Sequence: EVADRILFM
pKd ([23]; source organism: Bacillus cereus AH1134): 8.52

Sequence: MVPLHIPEG
pIC50 [1, 37]: 4.42

Sequence: CSRLQTCIK
pKd [5, 29]: 7.36

Sequence: ELMMATIGIA
pKd [16, 35]: 7.19

Sequence: RTLRVLNLV
pKd [5, 35]: 6.65 | pKd [24]: 7.99

Sequence: CLPAAPDGI
pIC50 [1, 30]: 5.42 | pIC50 [2, 30]: 4.43

Sequence: IWLKLREVY
pKd [3, 36]: ≤ 4.11

Sequence: NVWEVEDYGF
pKd [13, 36]: 6.76

Sequence: CNLTSTWVTY
pKd [3, 36]: ≤ 4.16

Sequence: EKTKTDFGFY
pKd [3, 31]: 7.70 | pKd [16, 31]: 5.03

Sequence: TTRDKLFNK
pKd [5, 32]: 6.91

Sequence: HEMYWVSCG
pKd [25, 33]: 7.43

Sequence: QREIFSAWI
pIC50 ([2]; source organism: Variola virus): ≤ 4.12

Sequence: KAISNARLK
pKd [5, 32]: 7.59

Sequence: LAGFMAYMI
pKd [11, 31]: 5.67 | pKd [12, 31]: 5.15

Sequence: TKLEGKIVQY
pKd [3, 33]: 5.15

Sequence: HLHQQLSNT
pIC50 [1, 37]: 4.82

Sequence: SVKCQSPPS
pKd [5, 32]: 7.77

Sequence: CAIILGGLTW
pKd [11, 31]: 6.26

Sequence: YLIHDNIMYT
pKd [26, 32]: 8.85

Sequence: EERDIPERSW
pKd [25, 33]: 7.14

Sequence: LCRTSCLQK
pKd [5, 31]: 5.87

pKd ([15]; source organism: Homo sapiens): 8.33
Sequence: VLLGVKLSGV

Sequence: VWIEDNPNMI
pKd [13, 42]: 6.33 | pKd [14, 42]: 6.26

Sequence: LWPKTHTLW
pKd [14, 31]: 7.35

Sequence: RHYSASFKK
pKd ([17]; source organism: SARS-CoV1): 6.47 | pKd [27]: 6.15 | pKd [20]: 6.55 | pKd ([19]; source organism: SARS-CoV1): 5.90

Sequence: RNQNKEGDQY
pKd [3, 33]: 6.92

Sequence: TVIEHLERL
pKd [16, 36]: 7.09

Sequence: LSFTVVSNG
pIC50 [1, 30]: ≤ 3.49

Sequence: RYVHKVSGT
pIC50 [1, 30]: ≤ 4.04 | pIC50 [2, 30]: 5.18

Sequence: VMGITAEWLW
pKd [11, 36]: 7.40

Sequence: ILLSCIHTT
pKd [26, 29]: 8.92

Sequence: KVASEGFQY
pKd [3, 33]: 7.54

Sequence: MFLIAENKI
pKd [12, 43]: 5.56 | pKd [13, 43]: 6.04

Sequence: TISGVLWQV
pKd ([15]; source organism: Hepatitis C virus subtype 2b): 7.46

Sequence: GYHTQTAGPW
pKd [14, 35]: 5.49

Sequence: KLTFLDVEV
pKd ([26]; source organism: Variola virus): 8.00

Sequence: NEMILLTMK
pKd [25, 36]: 6.08

Sequence: CLEKVQRQI
pIC50 [1, 30]: 4.66

Sequence: IMLKANFSV
pKd ([26]; source organism: Influenza A virus (A/Hokkaido/20/89(H3N2))): 9.52

Sequence: EGINELGAM
pKd ([23]; source organism: Vibrio vulnificus CMCP6): 7.32

Sequence: AYTIGTTHF
pKd [13, 35]: 6.90 | pKd [14, 35]: 6.11

Sequence: MAICSAVPTE
pKd [5, 31]: 4.97

Sequence: RTKITSLPL
pKd [5, 32]: 10.06

Sequence: EVKTCIWPK
pKd [5, 33]: 5.87 | pKd [9, 33]: 8.55

Sequence: DRERLKVFL
pIC50 ([2]; source organism: Variola virus): ≤ 3.77

Sequence: VLQTFMRMA
pKd [15, 39]: ≤ 5.30

Sequence: KAKTTISNY
pKd [5, 32]: 7.61

pKd [28]: 8.10 | pKd ([15]; source organism: Homo sapiens): 6.89
Sequence: ALPHAILRL

Sequence: DKFRKSSFF
pIC50 [2, 37]: 4.28

Sequence: TPEGEVGAI
pKd [11, 33]: ≤ 4.40

pKd ([15]; source organism: Homo sapiens): 5.39
Sequence: ILDKVLVHP

Sequence: ALLEDPVGT
pIC50 [1, 38]: 7.55

Sequence: EPIPMSTYGW
pKd [11, 35]: 6.48 | pKd [16, 35]: ≤ 4.39
